PMC7810915 (Computational and Structural Biotechnology Journal, 2019)

Target: the molecule itself
Test: NMR relaxation

B1: Smad5 MH1 domain (wild type) (domain or fragment, Homo sapiens)
chain: GPSFTSPAVKRLLGWKQGDEEEKWAEKAVDALVKKLKKKKGAMEELEKALSSPGQPSKCVTIPRSLDGRLQVSHRKGLPHVIYCRVWRWPDLQSHHELKPLDICEFPFGSKQKEVCINPYHYKRVESPVLPP
  Kd: 8.3 ± 1.5 mM
